Reference: the supplement of paper PMC12764529
± gives the half width of the 95% confidence interval.

experiment: folding stability dG unfold from chymotrypsin proteolysis; higher = more stable
How it was run: (§1)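 Unfolding free energy was derived, per protease or combined, by relating Bayesian-fitted K50 values from sequencing counts to a sequence-predicted unfolded-state K50 and a shared folded-state K50. The underlying digests exposed cysteine-free mini-proteins under 80 residues, in a PA-tagged cDNA display construct, to trypsin and chymotrypsin at 11 threefold-diluted concentrations and to a no-protease condition. A filter kept only designs with AlphaFold2 dimer inter-PAE above 15.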

Sequence | folding stability dG unfold
SMKIEKKDGKYVLTIKIKADSVEEVLNALKKLGIKFPPGVKEIKVVKVEEVNGEVYITIVVDTEEALKALSA [r9_820_TrROS_Hall] | 2.34 ± 0.09 kcal/mol
SAGGMVVRIKVKIKNPETGEVIEVEALVEVDEDGNVTITLPNGKKITLPKGAKVEIVDVEELPPEDLSAGGS [r16_223_TrROS_Hall] | 3.14 ± 0.075 kcal/mol
SAGGSAGGSAGGEVVVVPLPDGSYVVALPDGTVVVYNPETGRWEERRSEDVVIAPGRPDESAGGSAGGSAGG [r7_656_TrMRF] | 2.51 ± 0.031 kcal/mol
SAGGSAGGIWIPVPDGYWIKIEMPDNNGEPKATHEMDSPADVEEALEEMPPDNLTKVEIWPLPDSAGGSAGG [r6_705_TrROS] | 0.902 ± 0.21 kcal/mol
SAGGSAEPIGTLTLSFPVKVKVKDADGSIHEYDVTITVTPTVYRLPNGDLVVGLDVEIVFPDGSSLPGSAGG [r13_113_TrMRF] | 4.42 ± 0.065 kcal/mol
SAGGSAGGSAGWIDPEDIKKIQHERNPNNGRGEMRLEFENGKPVEIEFKSPEEALDWLLKSAGGSAGGSAGG [r11_339_TrROS] | -0.156 ± 0.23 kcal/mol
SAGGSAGGSAGMKTVLSTKTEPSPEDLTVTTVTLGDKVYTIIYDPKTGKPLKVIPAGEFKSAGGSAGGSAGG [r11_851_JUSTAS] | 1.25 ± 0.093 kcal/mol
SAGMSPELLEALRKAAEEEGLEVVEIKVEKLPNGEVKITIRLKNGKEIKEITLPKDVKTPEEALKLIRESAG [r5_352_TrROS_Hall] | 4.04 ± 0.081 kcal/mol
SAGKPVLLKIEIEVKVNGKTVKLELEILVEPGETIEELLAALPGVEEVKIKIEPISLEELEELKKKKPSAGG [r19_339_TrROS_Hall] | 1.88 ± 0.059 kcal/mol
SAGGSAGGSAGKLVVVRAIDPENPFVVATTSDNRTYVFDSLEELLEQVPEGVPVLFLPTVSAGGSAGGSAGG [r17_295_TrMRF] | 1.22 ± 0.071 kcal/mol
SAKIKVEIVEIDEKTGTIKIKAEIELPDGTKIELEATIKIEPVEVEKKEVTDKNGKKITVTKIKIKLPEKSA [r9_610_TrROS_Hall] | 2.52 ± 0.24 kcal/mol
SAMYVYRARVEVRGPDGELLAEEEIVAESPEELKVAVLERFGLKESEIVRLEVEPVIPLEEFLELLEKGSAG [r14_852_TrMRF] | 2.48 ± 0.068 kcal/mol
SAGGSAGGSGWRPARVVRVERYRDPVNPRWYYRVEAELPDRRVTLVVPENAPVDEDGVLLIPFSAGGSAGGS [r20_49_TrMRF] | 1.45 ± 0.042 kcal/mol
SAGGSAGGSAGGMRVYEFDSEEEAQAFAEELRAAEPDVREVTIERDPETGKYRVTVVAESAGGSAGGSAGGS [r10_544_JUSTAS] | 4.69 ± 0.091 kcal/mol
SAGGSAGGSAGGHKIDIEWERYEDGMYRVTITIRSNNGPRKIPFWVPPGYETADDILKQISAGGSAGGSAGG [r7_75_TrROS] | 1.71 ± 0.066 kcal/mol
SAGMKIENAEITEIKVTVNEDGTVTVEMTVRLKNGYVVKVTMTFKNGKLEIKPEKVEVYKVKLPEEELSAGG [r19_84_TrROS_Hall] | 2.28 ± 0.22 kcal/mol
SKKVLFIEAKSEEELKAAVKALLDAGYDEIVVSSPEAAKALKELLPDVKVTLVEVKPEKKLSEEEKKKLKSA [r9_639_TrROS_Hall] | 1.42 ± 0.096 kcal/mol
SAGGSAGGSAGKIEVTYNKENNTFTVKIVNKKTKKVITIKVKAKSKEDALKKVKELLEKLSAGGSAGGSAGG [r17_386_TrROS_Hall] | 3.32 ± 0.078 kcal/mol
SAGGSAGGSAGGMEEIRELLEKAKKEGLESITVTVNDPAEATEVRAYAEEKGIPVTINASAGGSAGGSAGGS [r10_307_JUSTAS] | -1.01 ± 0.56 kcal/mol
SAGGSAFPIRIKDDNQKKIMIPFDSPEELEDLLKEPGIDKVDPEPNPDGNQPWFTIDLPNGKIELWSAGGSA [r15_632_TrROS] | -1.04 ± 0.66 kcal/mol
SAGMTFEAEVKEKTIYIPEINNIIKIKIVNLKPPEGPIIPIIKIEFYVSENTTPEDIIKLLKELNIPVESAG [r5_486_TrMRF] | 2.11 ± 0.024 kcal/mol

experiment: folding stability dG unfold (combined trypsin and chymotrypsin); higher = more stable
How it was run: as §1

Sequence | folding stability dG unfold
SAGGSAGGSAKETLRMELELEIDGVVVRVEAEVELDPETNELHIRVKVEVEPLPPPLPPGLESAGGSAGGSA [r18_16_TrROS_Hall] | 2.32 ± 0.33 kcal/mol
SAGGSAGGSMTVTITFAPDESLGPEKLEELLKKAGPDTTIVLSKYDPATGTTSTATIKVEPGSSAGGSAGGS [r12_913_JUSTAS] | 1.07 ± 0.07 kcal/mol
SAGGSAGGSAGGMTIPLEFEFPDGRRLRITYHIEPSEDGLKITAEVEIEPIPEPPLPSDSAGGSAGGSAGGS [r10_1200_TrMRF] | 3.31 ± 0.26 kcal/mol
SGPVPLPVEVTFEPNSETTVTLPSGRTYTVPTPPNGSATATADPATGVVTITVTSGSSTTTLTFPVPAELSA [r9_226_JUSTAS] | 0.592 ± 0.051 kcal/mol
SIMIMIPPGEEIEITIEKLKDVEVMIFNNGKVREQRVPPGEEIKFELPPGAKGFMIMIKGPNGKAQMITLSA [r9_143_TrROS] | 2.66 ± 0.4 kcal/mol
SAGMDIELVVPIESPGSPEEIEKTVEELKEKLEKLGYKVEVSREIHPVGDKLVATITIKITAPPDLPLLSAG [r5_217_JUSTAS] | 2.85 ± 0.16 kcal/mol
SAGGSAGGSPLPPEVYKIRLKVDGKWYEALARVKPDGTVEVFLKDTGKTFTVPLKDLEIEKLDSAGGSAGGS [r12_782_TrROS_Hall] | 3.35 ± 0.14 kcal/mol
SAGGGVKFELVDIESDGDGKYIAKIKVYNENGELIEEIEIEVKGLKNVTLTIPLINKPKKIEIKVTPESAGG [r13_427_TrMRF] | 1.21 ± 0.12 kcal/mol
SAGGSAGGSAGKMYKAKVKIGNKEYEAYIEENVPEDGTITVKFDDKTIEIKAENIEVYDESAGGSAGGSAGG [r11_247_TrMRF] | 1.15 ± 0.067 kcal/mol
SAGGSAGGSAGGNPLKGNFFRLKLELTLKVEVKIPKKGEKKTFPIKIELELDVPPDSILSAGGSAGGSAGGS [r10_133_TrMRF] | 3.69 ± 0.11 kcal/mol
